From patent publication US20220213196A1 (GRITSTONE BIO, published 2022)

Legend:
[1] = biological target: HLA-A*01:01_… (G2) on K562 cells (human); assay: flow cytometry, HLA-A*01:01-transduced K562 cells pulsed with target peptide, IgG titration
[2] = biological target: T1, HLA-A*02:01_… (HLA-PEPTIDE target G8), recombinant soluble complex (human, UniProt P04439 25-297 at identity 0.94); P61769 21-119, enzymatically biotinylated (BirA) for screening and functional assays); assay: BLI Octet, pHLA on streptavidin sensor, 1:1 fit
T1 construct: Also crystallised with Fab G8-P1C11

[3] = biological target: T1, HLA-A*02:01_… (HLA-PEPTIDE target G8), …; assay: BLI (Octet), biotinylated pHLA on streptavidin sensors; printed under the Fab sensorgrams, the sheet does not say which format or fit gave the bivalent value
[4] = biological target: HLA-A*01:01_… (HLA-PEPTIDE target G2), recombinant soluble complex (human, UniProt P04439-2 25-297; P61769 21-119, enzymatically biotinylated (BirA) for screening and functional assays); assay: BLI Octet, pHLA on streptavidin sensor, 1:1 fit
[5] = biological target: T1, HLA-A*02:01_… (HLA-PEPTIDE target G8), …; assay: BLI (Octet), biotinylated pHLA on streptavidin sensors; printed under the Fab sensorgrams, the sheet does not say which format or fit gave the bivalent value [cont'd]
[6] = biological target: T2, HLA-A*01:01_… (G10) on cells (human); assay: flow cytometry histogram, IgG at 30 µg/mL on HLA-A*01:01-transduced K562 cells pulsed with 50 µM …
T2 construct: also called G10-presenting K562 cells; Colo829

[7] = biological target: T3, HLA-B*35:01_… (HLA-PEPTIDE target G5), recombinant soluble complex (human, UniProt P01889 25-297 at identity 0.94); P61769 21-119, enzymatically biotinylated (BirA) for screening and functional assays); assay: BLI Octet, pHLA on streptavidin sensor, 1:1 fit
[8] = biological target: T3, HLA-B*35:01_… (HLA-PEPTIDE target G5), …; assay: BLI (Octet), biotinylated pHLA on streptavidin sensors; printed under the Fab sensorgrams, the sheet does not say which format or fit gave the bivalent value [cont'd]

B1: IgG G2-P1H11 (antibody, V domains shown)
VH: QVQLVQSGAEVKKPGASVKVSCKASGYTFTNYYMHWVRQAPGQGLEWMGMINPSGGGTSYAQKFQGRVTMTRDTSTSTVYMELSSLRSEDTAVYYCARGNPWELRLDYWGQGTLVTVSS
VL: DIQMTQSPSSLSASVGDRVTITCQASQDISNYLNWYQQKPGKAPKLLIYAASSLQSGVPSRFSGSGSGTDFTLTISSLQPEDFATYYCQQYYSYPFTFGPGTKVDIK
[1]
  binding result: binds

B2: Fab G8-P1B03 (Fab, V domains shown)
VH: EVQLLESGGGLVQPGGSLRLSCAASGFTFSDYYMSWVRQAPGKGLEWVSGINWNGGSTGYADSVKGRFTISRDNSKNTLYLQMNSLRAEDTAVYYCARVEQGYDIYYYYYMDVWGKGTTVTVSS
VL: DIQMTQSPSSLSASVGDRVTITCRASQSISSYLNWYQQKPGKAPKLLIYKASSLESGVPSRFSGSGSGTDFTLTISSLQPEDFATYYCQQSYSAPYTFGPGTKVDIK
notes: Fab from HEK293
[2]
  Kd: 307 nM
  koff: 0.0511 s⁻¹
  kon: 167000 M⁻¹ s⁻¹
[3]
  Apparent KD (bivalent): 3.54 nM

B3: Fab G8-P4F05 (Fab, V domains shown)
VH: QVQLVQSGAEVKKPGASVKVSCKASGYTFSNMYLHWVRQAPGQGLEWMGWINPNTGDTNYAQTFQGRVTMTRDTSTSTVYMELSSLRSEDTAVYYCARGLYGDYFLYYGMDVWGQGTKVTVSS
VL: DIQMTQSPSSLSASVGDRVTITCRASQGISNYLAWYQQKPGKAPKLLIYAASTLQSGVPSRFSGSGSGTDFTLTISSLQPEDFATYYCQQSYSTPLTFGGGTKVEIK
notes: Fab from HEK293; also called R3G8-P4F05
[2]
  Kd: 984 nM
  koff: 0.063 s⁻¹
  kon: 64000 M⁻¹ s⁻¹
[3]
  Apparent KD (bivalent): 7.9 nM

B4: Fab G2-P2C06 (Fab, V domains shown)
VH: QVQLVQSGAEVKKPGASVKVSCKSSGYSFDSYVVNWVRQAPGQGLEWMGWINPNSGGTNYAQKFQGRVTMTRDTSTSTVYMELSSLRSEDTAVYYCARDWVLDYWGQGTLVTVSS
VL: DIQMTQSPSSLSASVGDRVTITCRASQTISSWLAWYQQKPGKAPKLLIYAASSLQSGVPSRFSGSGSGTDFTLTISSLQPEDFATYYCQQSYSTPFTFGPGTKVDIK
notes: Fab
[4]
  Kd: 30.6 nM
  koff: 0.0348 s⁻¹
  kon: 1.14e+06 M⁻¹ s⁻¹

B5: Fab G8-P5G08 (Fab, V domains shown)
VH: QVQLVQSGAEVKKPGASVKVSCKASGYTFTSNYMHWVRQAPGQGLEWMGWMNPNSGNTGYAQKFQGRVTMTRDTSTSTVYMELSSLRSEDTAVYYCARGLYGDYFLYYGMDVWGQGTTVTVSS
VL: not shown
notes: Fab from HEK293; also called R3G8-P5G08
[2]
  Kd: 530 nM
  koff: 0.0528 s⁻¹
  kon: 99700 M⁻¹ s⁻¹
[5]
  Apparent KD (bivalent): 6.65 nM

B6: IgG G10-P1B07 (antibody, V domains shown)
VH: QVQLVQSGAEVKKPGASVKVSCKASGYTFTSYYMHWVRQAPGQGLEWMGIIHPGGGTTSYAQKFQGRVTMTRDTSTSTVYMELSSLRSEDTAVYYCARDKVYGDGFDPWGQGTLVTVSS
VL: DIQMTQSPSSLSASVGDRVTITCRASQSISRWLAWYQQKPGKAPKLLIFDASRLQSGVPSRFSGSGSGTDFTLTISSLQPEDFATYYCQQAEAFPYTFGQGTKVEIK
notes: IgG; also called R3G10-P1B07
[6]
  binding result: binds

B7: Fab G5-P1C12 (Fab, V domains shown)
VH: QVQLVQSGAEVKKPGSSVKVSCKASGGTFSNFGVSWLRQAPGQGLEWMGGIIPILGTANYAQKFQGRVTITADESTSTAYMELSSLRSEDTAVYYCATPTNSGYYGPYYYYGMDVWGQGTTVTVSS
VL: DIQMTQSPSSLSASVGDRVTITCRASQSISSWLAWYQQKPGKAPKLLIYAASTLQSGVPSRFSGSGSGTDFTLTISSLQPEDFATYYCQQSYSIPLTFGGGTKVEIK
notes: Fab from HEK293
[7]
  Kd: 85.9 nM
  koff: 0.0158 s⁻¹
[8]
  Apparent KD (bivalent): 0.378 nM
